From paper PMC5990521, “Structural basis of DUX4/IGH-driven transactivation”

Key:
Test in all cases: BLI; BLI on Octet Red 96, biotin-DNA-DRE on SA sensors, protein 0.5-32 uM (HD2) or 0.25-16 uM (HD1-HD2); buffer, salt, pH and temperature not given in the material
DUX4 HD2 Q143E = DUX4 HD2 Q143E (human, UniProt Q9UBX2 94-153, Q143E); conditions: protein: recombinant; tags: N-terminal His-tag, removed with thrombin; blunt
DUX4 HD2 R95A = DUX4 HD2 R95A (human, UniProt Q9UBX2 94-153, R95A); conditions: protein: recombinant; tags: N-terminal His-tag, removed with thrombin; blunt
DUX4 HD2 R95A, sequence (Q9UBX2 94-153 R95A): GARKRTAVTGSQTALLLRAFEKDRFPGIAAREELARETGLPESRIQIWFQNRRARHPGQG

DUX4 HD2 N144E = DUX4 HD2 N144E (human, UniProt Q9UBX2 94-153, N144E); conditions: protein: recombinant; tags: N-terminal His-tag, removed with thrombin; blunt
DUX4 HD2 N144E, sequence (Q9UBX2 94-153 N144E): as the sequence (Q9UBX2 94-153 R95A) above, with A2R, N51E counted along it

DUX4 HD2 K97A = DUX4 HD2 K97A (human, UniProt Q9UBX2 94-153, K97A); conditions: protein: recombinant; tags: N-terminal His-tag, removed with thrombin; blunt
DUX4 HD2 K97A, sequence (Q9UBX2 94-153 K97A): as the sequence (Q9UBX2 94-153 R95A) above, with A2R, K4A counted along it

DUX4 HD2 R98A = DUX4 HD2 R98A (human, UniProt Q9UBX2 94-153, R98A); conditions: protein: recombinant; tags: N-terminal His-tag, removed with thrombin; blunt
DUX4 HD2 R98A, sequence (Q9UBX2 94-153 R98A): as the sequence (Q9UBX2 94-153 R95A) above, with A2R, R5A counted along it

DUX4 HD2 R148E = DUX4 HD2 R148E (human, UniProt Q9UBX2 94-153, R148E); conditions: protein: recombinant; tags: N-terminal His-tag, removed with thrombin; blunt
DUX4 HD2 R148E, sequence (Q9UBX2 94-153 R148E): as the sequence (Q9UBX2 94-153 R95A) above, with A2R, R55E counted along it

DUX4 HD1-HD2 = DUX4 HD1-HD2 (human, UniProt Q9UBX2 19-153); conditions: protein: recombinant; blunt
DUX4 HD1-HD2, sequence (Q9UBX2 19-153): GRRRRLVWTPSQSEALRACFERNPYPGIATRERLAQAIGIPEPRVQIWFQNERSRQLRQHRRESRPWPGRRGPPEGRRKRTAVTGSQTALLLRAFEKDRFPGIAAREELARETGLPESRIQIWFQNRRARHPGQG

DUX4 HD2 R96A = DUX4 HD2 R96A (human, UniProt Q9UBX2 94-153, R96A); conditions: protein: recombinant; tags: N-terminal His-tag, removed with thrombin; blunt
DUX4 HD2 R96A, sequence (Q9UBX2 94-153 R96A): as the sequence (Q9UBX2 94-153 R95A) above, with A2R, R3A counted along it

DUX4 HD2 Q143E, sequence (Q9UBX2 94-153 Q143E): as the sequence (Q9UBX2 94-153 R95A) above, with A2R, Q50E counted along it

B1: biotin-DNA-DRE (BLI) (dsDNA)
DNA 1: TTCTAATCTAATCA
DNA 2: TGATTAGATTAGAA
modifications: biotin
In the case of B1, the Kd (DUX4 HD2 Q143E) is reported as 31 µM, the binding result (DUX4 HD2 R95A) is reported as “no binding” and the Kd (DUX4 HD2 N144E) is reported as 55 µM. For the same binder, the binding result (DUX4 HD2 K97A) was “no binding”, the binding result (DUX4 HD2 R98A) was “no binding” and the Kd (DUX4 HD2 R148E) was 67 µM. For the same binder, the Kd (DUX4 HD1-HD2) was 1.4 µM and the binding result (DUX4 HD2 R96A) was “no binding”.
